In US20160102129A1 (Novo Nordisk, published 2016):
*1 amine or outer side, *2 acyl side, *3 side chain or, on linkers, in order; H or OH if unused. Side-chain parts run from the residue outwards. [ ]: non-standard residue; d: D form. The star is where a group is joined. C18 diacid = O=C(O)CCCCCCCCCCCCCCCCC(=O)*; γGlu = O=C(O)[C@H](CCC(=O)[*:2])N[*:1]; Desaminohistidyl = O=C(CCc1c[nH]cn1)*; Ac4c = NC1(C(=O)O)CCC1; AEEA = NCCOCCOCC(=O)O; Aib = CC(C)(N)C(=O)O

Experiments:
[1] = molecular target: T1, human GLP-1 receptor (human, UniProt P43220 24-463); experiment: SPA displacement of [125I]GLP-1(7-36)NH2 from hGLP-1R BHK membranes
T1 construct: whole, on cells; reporter assay on whole cells
Procedure: The GLP-1 receptor binding of each derivatives were determined with competitive binding, displacing [¹²⁵I]GLP-1 bound to GLP-1 receptors expressed in cell membranes associated with wheat germ agglutinin (WGA) scintillation proximity assay (SPA) beads. Each derivative was added in a series of concentrations to isolated membranes comprising the human GLP-1 receptor and displacement of the labelled radioligand was monitored. The receptor binding was reported as the concentration at which half of the labelled ligand is displaced from the receptor, the IC⁵⁰ value.
1. For the receptor binding assay 50 μl of the assay buffer was added to each well of an assay plate. [0588] 2. Test compounds were serially diluted to give the following concentrations: 8×10EE-7 M, 8×10EE-8 M, 8×10EE-9 M, 8×10EE-10 M, 8×10EE-11 M, 8×10EE-12 M and 8×10EE-13 M. Twenty-five μl were added to appropriate wells in the assay plate. [0589] 3. Cell membrane aliquots were thawed and diluted to their working concentration. Fifty μl were added to each well in the assay plate. [0590] 4. WGA SPA beads were suspended in assay buffer at 20 mg/ml. The suspension was diluted to 10 mg/ml in assay buffer just prior to addition to the assay plate. Fifty μl were added to each well in the assay plate. [0591] 5. […] A 25 μl aliquot was reserved for measuring total counts/well. [0592] 6. The assay plate was incubated for 2 h at 30° C. [0593] 7. The assay plate was centrifuged for 10 min. [0594] 8. The assay plate was read in a Perkin Elmer TopCount NXT instrument.

[2] = molecular target: T2, human glucagon receptor (human, UniProt P47871 26-477); experiment: SPA displacement of [125I]-glucagon from human glucagon receptor BHK membranes
T2 construct: whole, on cells; reporter assay on whole cells
T2 sequence (P47871 26-477): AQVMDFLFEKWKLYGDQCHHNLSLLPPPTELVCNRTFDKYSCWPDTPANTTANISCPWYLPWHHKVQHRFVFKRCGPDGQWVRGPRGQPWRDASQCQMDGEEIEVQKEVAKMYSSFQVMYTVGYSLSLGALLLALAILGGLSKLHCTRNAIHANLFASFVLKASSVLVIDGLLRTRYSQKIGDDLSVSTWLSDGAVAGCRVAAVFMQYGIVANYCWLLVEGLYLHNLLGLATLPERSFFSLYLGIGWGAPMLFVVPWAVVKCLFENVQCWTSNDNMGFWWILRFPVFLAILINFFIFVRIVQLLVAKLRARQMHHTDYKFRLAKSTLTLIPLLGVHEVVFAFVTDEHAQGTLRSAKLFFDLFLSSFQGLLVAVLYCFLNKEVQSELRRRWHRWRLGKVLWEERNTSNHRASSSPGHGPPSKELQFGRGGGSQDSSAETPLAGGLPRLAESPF
Procedure: 1. For the receptor binding assay 50 μl of the assay buffer was added to each well of an assay plate. [0603] 2. Test compounds were serially diluted to give the following concentrations: 8×10EE-7 M, 8×10EE-8 M, 8×10EE-9 M, 8×10EE-10 M, 8×10EE-11 M, 8×10EE-12 M and 8×10EE-13 M. Twenty-five μl were added to appropriate wells in the assay plate. [0604] 3. Cell membrane aliquots were thawed and diluted to their working concentration. Fifty μl were added to each well in the assay plate. [0605] 4. WGA SPA beads were suspended in assay buffer at 20 mg/ml. The suspension was diluted to 10 mg/ml in assay buffer just prior to addition to the assay plate. Fifty μl were added to each well in the assay plate. [0606] 5. […] A 25 μl aliquot was reserved for measuring total counts/well. […] 6. The assay plate was incubated for 2 h at 25° C. [0608] 7. The assay plate was centrifuged for 10 min at 1500 rpm. [0609] 8. The assay plate was read in a Perkin Elmer TopCount NXT instrument.

IC50 [1] [nM] | IC50 [2] [nM] | Binder
0.2 | 14.1 | [Desaminohistidyl][Ac4c]HGTFTSDVSKYLEK([γGlu-γGlu-AEEA-AEEA-γGlu-C18 diacid])RAAREFIAWLLKT-NH2 (SMILES CC[C@H](C)[C@H](NC(=O)[C@H](Cc1ccccc1)NC(=O)[C@H](CCC(=O)O)NC(=O)[C@H](CCCNC(=N)N)NC(=O)[C@H](C)NC(=O)[C@H](C)NC(=O)[C@H](CCCNC(=N)N)NC(=O)[C@H](CCCCNC(=O)CC[C@H](NC(=O)CC[C@H](NC(=O)COCCOCCNC(=O)COCCOCCNC(=O)CC[C@H](NC(=O)CCCCCCCCCCCCCCCCC(=O)O)C(=O)O)C(=O)O)C(=O)O)NC(=O)[C@H](CCC(=O)O)NC(=O)[C@H](CC(C)C)NC(=O)[C@H](Cc1ccc(O)cc1)NC(=O)[C@H](CCCCN)NC(=O)[C@H](CO)NC(=O)[C@@H](NC(=O)[C@H](CC(=O)O)NC(=O)[C@H](CO)NC(=O)[C@@H](NC(=O)[C@H](Cc1ccccc1)NC(=O)[C@@H](NC(=O)CNC(=O)[C@H](Cc1c[nH]cn1)NC(=O)C1(NC(=O)CCc2c[nH]cn2)CCC1)[C@@H](C)O)[C@@H](C)O)C(C)C)C(=O)N[C@@H](C)C(=O)N[C@@H](Cc1c[nH]c2ccccc12)C(=O)N[C@@H](CC(C)C)C(=O)N[C@@H](CC(C)C)C(=O)N[C@@H](CCCCN)C(=O)N[C@H](C(N)=O)[C@@H](C)O)
0.2 | 17.9 | [Desaminohistidyl][Ac4c]HGTFTSDVSKYLEK([γGlu-γGlu-AEEA-AEEA-γGlu-C18 diacid])QAAREFIAWLLKT-NH2 (SMILES CC[C@H](C)[C@H](NC(=O)[C@H](Cc1ccccc1)NC(=O)[C@H](CCC(=O)O)NC(=O)[C@H](CCCNC(=N)N)NC(=O)[C@H](C)NC(=O)[C@H](C)NC(=O)[C@H](CCC(N)=O)NC(=O)[C@H](CCCCNC(=O)CC[C@H](NC(=O)CC[C@H](NC(=O)COCCOCCNC(=O)COCCOCCNC(=O)CC[C@H](NC(=O)CCCCCCCCCCCCCCCCC(=O)O)C(=O)O)C(=O)O)C(=O)O)NC(=O)[C@H](CCC(=O)O)NC(=O)[C@H](CC(C)C)NC(=O)[C@H](Cc1ccc(O)cc1)NC(=O)[C@H](CCCCN)NC(=O)[C@H](CO)NC(=O)[C@@H](NC(=O)[C@H](CC(=O)O)NC(=O)[C@H](CO)NC(=O)[C@@H](NC(=O)[C@H](Cc1ccccc1)NC(=O)[C@@H](NC(=O)CNC(=O)[C@H](Cc1c[nH]cn1)NC(=O)C1(NC(=O)CCc2c[nH]cn2)CCC1)[C@@H](C)O)[C@@H](C)O)C(C)C)C(=O)N[C@@H](C)C(=O)N[C@@H](Cc1c[nH]c2ccccc12)C(=O)N[C@@H](CC(C)C)C(=O)N[C@@H](CC(C)C)C(=O)N[C@@H](CCCCN)C(=O)N[C@H](C(N)=O)[C@@H](C)O)
1.9 | 80.2 | [Desaminohistidyl][Aib]HGTFTSDVSKYLEGK([AEEA-AEEA-γGlu-C18 diacid])AAREFIAWLLKT-NH2 (SMILES CC[C@H](C)[C@H](NC(=O)[C@H](Cc1ccccc1)NC(=O)[C@H](CCC(=O)O)NC(=O)[C@H](CCCNC(=N)N)NC(=O)[C@H](C)NC(=O)[C@H](C)NC(=O)[C@H](CCCCNC(=O)COCCOCCNC(=O)COCCOCCNC(=O)CC[C@H](NC(=O)CCCCCCCCCCCCCCCCC(=O)O)C(=O)O)NC(=O)CNC(=O)[C@H](CCC(=O)O)NC(=O)[C@H](CC(C)C)NC(=O)[C@H](Cc1ccc(O)cc1)NC(=O)[C@H](CCCCN)NC(=O)[C@H](CO)NC(=O)[C@@H](NC(=O)[C@H](CC(=O)O)NC(=O)[C@H](CO)NC(=O)[C@@H](NC(=O)[C@H](Cc1ccccc1)NC(=O)[C@@H](NC(=O)CNC(=O)[C@H](Cc1c[nH]cn1)NC(=O)C(C)(C)NC(=O)CCc1c[nH]cn1)[C@@H](C)O)[C@@H](C)O)C(C)C)C(=O)N[C@@H](C)C(=O)N[C@@H](Cc1c[nH]c2ccccc12)C(=O)N[C@@H](CC(C)C)C(=O)N[C@@H](CC(C)C)C(=O)N[C@@H](CCCCN)C(=O)N[C@H](C(N)=O)[C@@H](C)O)
